Substrate: Nc1ncnc2c1ncn2[C@@H]1O[C@H](COP(=O)(O)OP(=O)(O)OP(=O)(O)O)[C@@H](O)[C@H]1O
Experiment: LDH-PK coupled kinase assay
Type: biochemical, Cryptosporidium parvum
Details: peptide substrate; MgCl2 stated only for autophosphorylation

B1: CpFIKKd (Cryptosporidium parvum Iowa II) (protein)
chain: GKNDKVCYTWKEAKQLISKLKSSTKLYKFNGVPFSDWAHEKIPTLGASPTSCRVQEMFKSRIYLEKNNEVYATLFIKKIPRNIWSKQWEMHEIWDGDYVTDGEDFVMEAAALAFLQNHSVGIAPRLYAILEHCEDNCNDINSNKESKIQYRNIANRNACDYLLSKDTTHIILVSEHYGEDLLDYLDKCEKKNRNLTDKEKKELQYKLALALNNLHSKGLCHLDFTPENILIGPNGINICDFAKSTPIITKNPRHTHYSRKSPKNHLSENFNSNNTSFNFINPPPEAYCEFESCEPTVGKGAYMPPECWKIFWRLEENKIQFPLEELMDIDTYNRRSNYSYFNEFSRIHNKSPIKCQDRSMFYFNTRIADIYMLGIIMFWIWSDGGIWKYSDTRQDHRYQNLVFSDINFDVFRECRGWNKQLKSLLKKMLEPDPNKRITMSEILSDPWWKCPLDE
notes: kinase domain plus N-terminal extension (38 or more residues); E. coli
Km: 48.0 ± 0.9 µM
kcat: 1.3 ± 0.0083 s⁻¹
kcat/Km: 26700 M⁻¹ s⁻¹

From PMC4576209, “Biochemical characterization of FIKK8 – A unique protein kinase from the malaria parasite Plasmodium falciparum and other apicomplexans” (Molecular and Biochemical Parasitology, 2015)
